Tested on: MS2 coat protein
Assay: apparent KD of MS2 coat protein; designed switch direction (-1 OFF switch, 1 ON switch): -1; higher = weaker reporter binding
Method in brief: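 Apparent KD, taken as the median over clusters for each design, was obtained by curve-fitting normalised cluster fluorescence. Designed RNA switches had been transcribed on Illumina chips by stalled E. coli RNA polymerase and titrated with SNAP-549-labelled MS2 coat protein, doubling from 0.7 or 1.5 nM to 3 µM.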

[1] = input ligand: microRNA oligo, concentration not stated
[2] = Eterna round: R95, input ligand: microRNA oligo, concentration not stated

Sequence | apparent KD of MS2 coat protein (input ligand: FMN 200 uM) [µM] | apparent KD of MS2 coat protein (input ligand: none) [µM] | further results
CCCAGUUAGAGAGGAUAUCGUACAUGAGGAUCACCCAUGUAAUAAAUGAGGAUUUCGGGUGUCUACGAGAAGGCUCGGAUAGGC [Ostracism 30 - Jieux - Exclusion NG 2] (Eterna round: R96, puzzle: Exclusion NG 2) | 0.0758 | 0.0359 | apparent KD of MS2 coat protein [1]: 0.0271 µM
ACGAGCAGACGGAGAUCCAACAUGAGGAUCACCCAUGUCUGGAAAGCUUUUUGCUUGUCUUAUCCUCCUCUGUUAGC [Design #10] (Eterna round: R97, puzzle: Sensor, turn-off variant 1) | 0.0124 | 0.0119 | 
AAUGGUAAAGUCAGGAUAUACGUAAGUCGUUCUAGGUAGAAGGGACAUGAGGAUCACCCAUGUAUGAUAGUAAA [Ex4 #33] (Eterna round: R97, puzzle: Brourd's mod of Exclusion 4) | 0.0254 | 0.0446 | 
GCUUUUUGUGUAGGAUAUCGCGCGCGGCGUGUGUGAGAAGGACAUGAGGAUCACCCAUGUAGCAACGGCGGCGCUGGUGUUGUC [-27, -24 kcal and 18% A] (Eterna round: R96, puzzle: Exclusion NG 1) | 0.0167 | 0.0195 | apparent KD of MS2 coat protein [1]: 0.0107 µM
CAUUUGUAAGGAUAUGCACCGAUCUCCGAAAGGAGAUCGGUGCAGAAGGUACAUGAGGAUCACCCAUGUUGAUG [Mod of Brourd 11 - Jieux - Exclusion 4] (Eterna round: R97, puzzle: Exclusion 4) | 0.218 | 0.0336 | 
GGUACUAACACGAUAGUGUUAGUACAAUAAGCUUGUGUUACAUGAGGAUCACCCAUGUCCUCAUAAGCUCGUCUUAU [Mat - Sensor v3 - Turn-off var 2 - D56] (puzzle: Sensor v3, turn-off variant 2) |  |  | apparent KD of MS2 coat protein (Eterna round: R95, input ligand: FMN 200 uM): 0.117 µM; apparent KD of MS2 coat protein [2]: 0.102 µM; apparent KD of MS2 coat protein (Eterna round: R95, input ligand: none): 0.108 µM
UGCAUGGUAGGAUAUACGGAACAUUAGGGUUUGUUGUGUGGACAUGAGGAUCACCCAUGUAGAAGGGCCGUGCU [JL-ex2-2.15 mat747 mod] (puzzle: Exclusion 2) |  |  | apparent KD of MS2 coat protein [2]: 0.0404 µM
CCGACGUGAGGAUAUCCAUCUGGAUCAGACAAGAUCCUGAUGGAGAAGGCACAUGAGGAUCACCCAUGUUACGG [Mat - Exclusion 4 - Eli Mod - D59] (Eterna round: R97, puzzle: Exclusion 4) | 0.738 | 0.412 | 
UCCUGACAUGAGGAUCACCCAUGUUAGGAUAUGACAUUUGGCGCGACAGUGUGGAGUGUUAGAAGGGAUGUGGG [-29.9, -27.2 kcal, A 24%] (Eterna round: R97, puzzle: Exclusion 1) | 0.0183 | 0.0165 | 
GGACGGUAAGUGAGGAUAUGCUCUACCUCGGUAGAGCAGAAGGCACAUGAGGAUCACCCAUGUGAAAACUGUUC [Omei Ex4B B31] (Eterna round: R97, puzzle: Brourd's mod of Exclusion 4) | 0.0215 | 0.015 | 
GUUAAUUGUCACAUGGGUGACAUGAGGAUCACCCAUGUCACAAGCUUUUUGUUCGUCUUAUAAUUAACCCAUGUGAC [Stov1/12-B2] (Eterna round: R97, puzzle: Sensor, turn-off variant 1) | 0.016 | 0.0144 | 
CUUCGACAUGAGGAUCACCCAUGUCAGGAUAUUGUGUAUCUGGUUUUUUACAGAUAGACAAGAAGGGAUGUGUU [LRO-Excl1-01] (puzzle: Exclusion 1) |  |  | apparent KD of MS2 coat protein [2]: 0.0252 µM
GUAGAUCGAGUUAGGAUAUGAUUAAAAUCCGGAUAUCAGAAGGAACUUGAGGAUCACCCAAGUAUAGAUGAUUC [JR_BMEx4_Sub056] (Eterna round: R97, puzzle: Brourd's mod of Exclusion 4) | 0.216 | 0.0479 | 
CUUUUGUGAGGAUAUCAGUAGUAAAAAAAUAAAAUUACUACUUAGAAGGCACAUGAGGAUCACCCAUGUUCCUC [salish99_ex4_r3_030] (puzzle: Exclusion 4) |  |  | apparent KD of MS2 coat protein [2]: 0.0254 µM
AGACUGCUGCGAGGAUAUACAUGAGGAUCACCCAUGUUUUCCUGUGAGGCAUAGCCUCACAGGAUGUAGAAGGCGCAGUAGUCA [Mat - Exclusion NG 2 - Mod of JL - D30] (Eterna round: R96, puzzle: Exclusion NG 2) | 0.0138 | 0.0119 | apparent KD of MS2 coat protein [1]: 0.0112 µM
UAUUAUCAAGCAAGAUCCCACAUGAGGAUCACCCAUGUGCUCGUCUUAUUUCUGUCCUUAUUGUUCUCUCGUCUAAU [JR_STOV1_v2_Sub096] (Eterna round: R97, puzzle: Sensor, turn-off variant 1) | 0.0418 | 0.0399 | 
UCUGGUGCAGGAUAUACAUGAGGAUCACCCAUGUGAUCAGCAGUCCUCGGACUGCAAUGUAGAAGGGCACCAGA [E3/1-D2] (Eterna round: R97, puzzle: Exclusion 3) | 0.0471 | 1.23 | 
AAUUUACAUGAGGAUCACCCAUGUCAGGAUAUGGUUUUAUUUUUUUCUUUUUUUGAUUCCAGAAGGGACAGUUA (puzzle: Exclusion 1) |  |  | apparent KD of MS2 coat protein [2]: 0.0915 µM

Reference: the supplement of paper PMC9170038
